Measured values from publication PMC3093369.
“And” between values parts separate entries of the source, which are not always exact repeats. Equal values may be shown once.

Assays:
[1] = molecular target: recombinant Fasciola hepatica helminth defence molecule-1 (FhHDM-1) (Fasciola hepatica); assay: AUC; sedimentation velocity, 0.1 mg/ml, 20°C, 10 mM Tris, 50 mM NaF, pH 7.3, 40,000 rpm; c(s) and c(M) distributions (SEDFIT)
[2] = molecular target: recombinant Fasciola hepatica helminth defence molecule-1 (FhHDM-1) (Fasciola hepatica); assay: AUC; sedimentation velocity, 0.1 mg/ml, 20°C, 10 mM sodium citrate, 50 mM NaF, pH 4.5, 40,000 rpm; c(s) and c(M) distributions (SEDFIT)

**Q.** What does the source list for “recombinant Fasciola hepatica helminth defence molecule-1 (FhHDM-1) (natural protein)”?
**A.** stoichiometry N [1]: 3; stoichiometry N [2]: 2 and 5
